According to the nanobody polyreactivity screen of Harvey et al. (2022):

experiment: yeast display, Sf9 membrane polyspecificity reagent, FACS + sequencing; frameworks hold sequencing errors
Method in brief: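 Nanobodies came from a synthetic yeast display library in Saccharomyces cerevisiae BJ5465, induced with galactose for 36–48 hours and stained for 1 hour at 4 °C with 10% biotinylated, detergent-solubilized Sf9 membrane reagent. Cells were enriched on streptavidin microbeads and then FACS-sorted, with low and high (top ~1%) gates set on anti-HA fluorescence for expression and streptavidin fluorescence for reagent binding. Each polyreactivity label reflects the gate a clone came from. Genes were amplified by colony PCR, sequenced by MiSeq 2 × 250 and filtered by CDR length.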

Row | Sequence | polyreactivity (PSR sort gate)
1 | QVQLVESGGGLVQAGGSLRLSCAASGIIFDFYTMGWYRQAPGKERELVAAINSSGGSTYYADSVKGRFTISRDNAMNTVYLHMNSLKPADTAVYYCNAEYLFFWGQYDYWGQGTQVTVSS | high polyreactivity
2 | QVQLVESGGGLVQAGGSLRLSCAASGIIFDINAMGWYRQAPGKERELVAAITTSVDSTYYADSVKGRFTISRDNAKNTVYLQMNRLKPEDTAVYYCAVAFVQFTQYDYWGQGTQVTVSS | low polyreactivity
3 | QVQLVESGGGLVQAGGSLRLSCAASGIIFDINAMGWYRQAPGKERELVAAITTSVDSTYYADSVKGRFTISRDNAKNTVYLQMNSLKPEDTAVYYCAVAFVQFTQYDYWGQGTQVTVSS | low polyreactivity
4 | QVQLVESGGGLVQAGGSLRLSCAASGIIFDLYAMGWYRQAPGKERELVAAITYGGGSTYYADSVKGRFTISRDNAKHTVYLQMNSLQPEDTAVYYCAAVPRSGMYYWGQGTQVTVSS | high polyreactivity
5 | QVQLVESGGGLVQAGGSLRLSCAASGIIFDTNAMGGYRQAPGKERELVATITQRGGTTYYADSVKGRFTISRDNEKYTVYLQMNSLKPEDTAVYYCNAGPVRLPYDSWGQGTQVTVSS | low polyreactivity
6 | QVQLVESGGGLVQAGGSLRLSCAASGIIFDWYAMGGYRQAPGKERELVAAITSGGGSTYYADSVKGRFTISRDNAKNSVYLQMNSLKPEDSAVYYCAADYQTIGWGYDYWGQGTQVTVSS | low polyreactivity
7 | QVQLVESGGGLVQAGGSLRLSCAASGIIFDYNAMGWYRQAPGKERELVAAISSSGGSTYYADSVKGRFTLSRDNAKNTVYLLMTSLKPEDTAVYYCAAAPRFRGYDYWGQGTQVTVSS | high polyreactivity
8 | QVQLVESGGGLVQAGGSLRLSCAASGIIFDYYAMGLYRHAPGKEMELVASISWSGGGTYYADSVKGRFTISRDNAKNTVYLQMNSLKPEDTAVYYCNAGDHFVHWPHVKHKKFDYWGQGTQVTVSS | low polyreactivity
9 | QVQLVESGGGLVQAGGSLRLSCAASGIIFDYYAMGWYRQAPGKERELVAAITTAGSTYYADSVKGRFTISRDNAKNTVYLQLNSLNPEDTAVYYCDAYLYSVRLGSYGYWGQGTQVTVSS | high polyreactivity
10 | QVQLVESGGGLVQAGGSLRLSCAASGIIFDYYPMGWYRQAPGKERELVAGITRSGGRTYYADSVKGRFTISRDNAKNTVYLQMNSLKPEDTAVYYCAAQRGRRRWGGYWGQGTQVTVSS | high polyreactivity
11 | QVQLVESGGGLVQAGGSLRLSCAASGIIFEGYAMGWYRQATGKERELVAAITGTADGTYYADSVKGRFTISRDNAKNTVYLQMNSLKPEDTAVYYCAKGSVVYLLRGVKGHSMDYWGQGTQVTVSS | low polyreactivity
12 | QVQLVESGGGLVQAGGSLRLSCAASGIIFELYAMGWYRQAPGKERELVAAISNGDSTNYADSVKGRFTISRDNAKNTVYLQMNSLKPEDTAVYYCAARYSTYVRYDYWGQGTQVTVSS | low polyreactivity
13 | QVQLVESGGGLVQAGGSLRLSCAASGIIFEPNAMGWYRQAPGKERELVAAIDSGGITYYADSVKGRFTISRDNAKNTVYLEMNSLKPEDTAVYYCAKRAYTRQYWYGYGYWGQGTQVTVSS | high polyreactivity
14 | QVQLVESGGGLVQAGGSLRLSCAASGIIFFSNTMVGYRQAPGKDREFVAAITWSTGNTYYADSVKGRFTISRDNAKNTVYLQMNSLKTEDTAVYYCYAEYLVITLYGGVEFDYWGQGTQVTVSS | low polyreactivity
15 | QVQLVESGGGLVQAGGSLRLSCAASGIIFFSYAMGWYRQAPGKERELVAAISGTGGNTYYADSVKGRFTISRDNAKNTVYLQMNSLKPEDTAVYYCAADQEWYYYFDSFAYYILGYWGQGTQVTVSS | high polyreactivity
16 | QVQLVESGGGLVQAGGSLRLSCAASGIIFFWNAMGWYRQAPGKERELVAAISSGGSTYADSVKGRFTISRDNAKNTVYLQMNSLKPEDTAVYYCAARFYHGYRPYSAIYGYGYWGQGTQVTVSS | low polyreactivity
17 | QVQLVESGGGLVQAGGSLRLSCAASGIIFFYYGMGWYIQAPGKERELVARISSGGSTNYADSVKGRFTISRDNAKITVYLQMNSLKQEDTAVYYCAARISTRYGYWGQGTQVTVSS | low polyreactivity
18 | QVQLVESGGGLVQAGGSLRLSCAASGIIFFYYVMGWYRQAPGKERELVAAISSDGSSTYYADSVKGRFTISRDNAKNTVNLQMNSQKPEDTAVYYCAAELILYPYDFNFWGQGTQVTVSS | high polyreactivity
19 | QVQLVESGGGLVQAGGSLRLSCAASGIIFGDYAMGWYRQAPGKEMELVAAITWSGGSTYYADSVKGRFTISRDNAKNTVYLQMNSLKPEDTAFYYCNADDDGRVSSTIVEYWGQGTQVTVSS | low polyreactivity
20 | QVQLVESGGGLVQAGGSLRLSCAASGIIFGFNTMGWYRQAPGKERELVAVITWSGGSTYYADSVKGRFTISRVFAKNTVYLQMNCLNPDDTAVYYCATVRAVEYNYWGQGTQVTVSS | low polyreactivity
21 | QVQLVESGGGLVQAGGSLRLSCAASGIIFGFYAMGWYRQAPGKERELVAAITIDGSTYYADSVKGRFTISRDNAKTTVYLQMNILKPEDTAVYYCGAQYLNVYYWEDYLGQGTQVTVSS | low polyreactivity
22 | QVQLVESGGGLVQAGGSLRLSCAASGIIFGIYAMGWYRQAPGKEREFVAAISWSDGSTRYADSVKGRFTISRDNAKNTVYLQMNCLKPEDTAVYYCNTDIGPLDFGEYSYPDDYWGQGTQVTVSS | low polyreactivity

Row | Sequence | polyreactivity (PSR sort gate)
23 | QVQLVESGGGLVQAGGSLRLSCAASGIIFGIYDMGWYRQAPGKERELVAAIRRSGGSTYYADSVKGRFTISRDNAKNTVYLQMNSLKPEDTAVYYCAATRHSRVRGGDYWGQGTQVTVSS | low polyreactivity
24 | QVQLVESGGGLVQAGGSLRLSCAASGIIFGLYTMGWYRQAPGKERELVAAISDSGGRTYYADSVKGRFTISRDNAKNTVYLQMNSLKPEDTAVYYCAAEFWYVLEYNYWGQGTQVTVSS | high polyreactivity
25 | QVQLVESGGGLVQAGGSLRLSCAASGIIFGNYAMGWYRQAPGKERELVAAITNGSSTNYADSVKGRFTISRDNAKNTVYLQMNSLKPEDTAVYYCARDGIGADGYDYWGQGTQVTVSS | low polyreactivity
26 | QVQLVESGGGLVQAGGSLRLSCAASGIIFGNYAMGWYRQEPGKERELVATITWRGGSTYYADSVKGRFTISRDNAKNTVYLQMISLKPEDTAVYYCARPYASYRSFYYYGYWGQGTQVTVSS | high polyreactivity
27 | QVQLVESGGGLVQAGGSLRLSCAASGIIFGRYAMGWYRQAPGKEREFVAAIRSRGGSTYYADSVKGRFTISRDNAKNTVYLQMNSLKPEDTAVYYCNAGHIYAGYRREYDYWGQGTQVTVSS | high polyreactivity
28 | QVQLVESGGGLVQAGGSLRLSCAASGIIFGTNAMGWYRQAPGKERELVASITSDGSTYYADSVKGRFTISRDNAKNTVYLQMNSLKPEDTAVYYCAADHYWADGVYLYDTYEYGYWGQGTQVTVSS | low polyreactivity
29 | QVQLVESGGGLVQAGGSLRLSCAASGIIFGTYAMGWYRQAPGKERELVAAISSGGRTYYADSVKGRFTISRDNAKNTVYLQMNSLKPEDTAVYYCNRPPWSRGSNYWGQGTQVTVSS | high polyreactivity
30 | QVQLVESGGGLVQAGGSLRLSCAASGIIFGVYAMGWYRQAPGKERELVASIRYSSVRTYYADSVKGRFTISRDNAKNTVYLQMNSLKPEDTAVYYCAKYYVWPRYGYWGQGTQVTVSS | high polyreactivity
31 | QVQLVESGGGLVQAGGSLRLSCAASGIIFGVYAMGWYRQAPGQERELVAAIDGNGSSTYYADSVKGRFTISRDNAKNTVYLQMNSLKPEDTAVYYCAAGYWSYLYYWYDFDYWGQGTQVTVSS | low polyreactivity
32 | QVQLVESGGGLVQAGGSLRLSCAASGIIFGWYAMGWYRQAPGKERELVADISSDDSTYYADSVKGRFTISRDNAKNTVYLQMNSLKPEDTAVYYCAADTSYGSYWSLYYYNYYWGQGTQVTVSS | high polyreactivity
33 | QVQLVESGGGLVQAGGSLRLSCAASGIIFGYNVMGWYRQAPGKERELVAAISGSGSSTYYADSVKGRFTISRDNAKITVYLQMNSLKPEDTAVYYCAARRYSTKRWRMYYWGQGTQVTVSS | high polyreactivity
34 | QVQLVESGGGLVQAGGSLRLSCAASGIIFHRYAMGWYRQAPGKERELVAAISWNGGSTYYADSVKGRFTISRDNAKNTVYLQMNSLKPEDTAVYYCAARKLYSNISGYWGQGTLVTVSS | high polyreactivity
35 | QVQLVESGGGLVQAGGSLRLSCAASGIIFHVYAMGWYRQAPGKERELVAAISDDGSTNYADSVKGRFTISRDNAKNTVYLQMNSLKPEDTAVYYCAKESWGRLYYRYDYWGQGTQVTVSA | low polyreactivity
36 | QVQLVESGGGLVQAGGSLRLSCAASGIIFHYYAMGWSRPEPGKERELVAAITSSGDRTYYADSVKGRFTISRDTAKNTVYLQMNSLKPEDTAVYYCAKDVWRWFGYWGQGTQVTVSS | high polyreactivity
37 | QVQLVESGGGLVQAGGSLRLSCAASGIIFHYYAMGWYRQAPGKEREFVASISFSGASTYYADSVKGRFTISRDNAKNTVYLQMNSLKPEDTAVYYCAARYLYGPKYYYCGQGTQVTVSS | high polyreactivity
38 | QVQLVESGGGLVQAGGSLRLSCAASGIIFIFYDMGWSRQAPGKERELVATITSGTNTYADSVKGRFTISRDNAKNTVYLQMNSLKPEDTAVYSCAAGFSPASQLDYWGQGTQVTVSS | low polyreactivity
39 | QVQLVESGGGLVQAGGSLRLSCAASGIIFIGNAMGWYRQAPGKERELVAAISRRGGRTYYADSVKGRFTISRDNAKNTVYLQMNSLKPEDTAVYYCNAEITVNDDDYWGQGTQVTVSS | low polyreactivity
40 | QVQLVESGGGLVQAGGSLRLSCAASGIIFIGYAMGWYSQAPGKERELVAAISTRGSTTNYADSVKGRFTISRDNAKNTVYLQMNSLKPEDTAVYYCAARKYPSYRYPTGDYWGQGTQVTVSS | high polyreactivity
41 | QVQLVESGGGLVQAGGSLRLSCAASGIIFITNAMGWYRQAPGKERDLVAVISFSGGGTYADSVKGRFTISRDNAKNTVYLQMNSLTPEDTAVYYCAKYWLSALTLEDDYWGQGTQVTVSS | low polyreactivity
42 | QVQLVESGGGLVQAGGSLRLSCAASGIIFIVNAMGWYRQAPGKERELVAAISNGGSTNYADSVKGRFTISRDNAKNTVYLQMNSLKPEDTAVYYCADDYSTWLRAYDYWGQGTQVTVSS | low polyreactivity
43 | QVQLVESGGGLVQAGGSLRLSCAASGIIFKGYDMGWYRQAPGKERELVAAISSGSTNYADSVKGRFTISRDNAKNTVYLQMNSLKPEDTAVYYCAAYNDTVPSAAHIYESWGQGTQVTVSS | low polyreactivity
